Measurements published in the supplement of paper PMC10201428.
± gives the standard deviation of the averaged measurements.

Legend:
[1] = test system: VchCAST RNA-guided transposition machinery (E. coli BL21(DE3) host, lacZ target); assay: relative integration efficiency (T-LR orientation) vs wild-type transposon end (log2 (normalized fold change)); transposon end mutated: right end (5 bp flank + 75 bp right end); higher = more efficient transposition
Summary of the method: (§1)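 A T7-driven effector plasmid encoding a CRISPR array, tniQ-cas8-cas7-cas6 and tnsA-tnsB-tnsC was co-transformed into E. coli BL21(DE3) together with a pUC57 mini-transposon donor holding barcoded pools of 1549 left-end or 1849 right-end variants. Transformants were plated with 0.1 mM IPTG at 37°C for 18 h. Illumina sequencing of PCR-amplified input plasmids and genomic integration junctions gave barcode abundances, and relative integration efficiency is their output/input fold change, normalised to reference barcodes and log-transformed.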

[2] = test system: VchCAST RNA-guided transposition machinery (E. coli BL21(DE3) host, lacZ target); assay: relative integration efficiency (T-RL orientation) vs wild-type transposon end (log2 (normalized fold change)); transposon end mutated: right end (5 bp flank + 75 bp right end); higher = more efficient transposition
Summary of the method: as §1

Sequence	relative integration efficiency (log2) [1]	relative integration efficiency (log2) [2]
ACATTTGTTCTATCAACCATAAAATGATAATTACACCCATAAATTGATAATTATCACACCCATAAATTGATATTGCCTCTGATCATAGTCAGACCAACATTGCTACGACCCGTATTCGCACCGACAC	-4.42 ± 0.25	-1.53 ± 0.17
ACATTTGTTGATACCACCATAAAATGGTAATTCCACCCATAAATTGATAATTATCACACCCAATTTAACTATAACGCTCTGATCATAGTCAGACCAACATTGCTACGACCCGTATTCGCACCGACAC	2.06 ± 0.076	-1.38 ± 0.23
ACATTTGTGGATCCAACCATAAAATGATAATTACACCCATAAATGGATCATTATCACACCCAATTTAACTATAACGCTCTGATCATAGTCAGACCAACATTGCTACGACCCGTATTCGCACCGACAC	0.845 ± 0.06	-1.79 ± 0.39
ACATTTGTTGATACAACCATAAAATGATAATTACACCCATAAATTGATAATTATCACACCCATAAATTGATATTGCCTCTGATAACTTCGTATAGCATACATTATACGAAGTTATTCGCACCGACAC	2.48 ± 0.26	-3.13 ± 0.076
ACATTTGTTGATACAACCATAATTTGATAATTACACCCATAAATTGATAATTATCACACCCATAAATTGATATTGCCTCTGATCATAGTCAGACCAACATTGCTACGACCCGTATTCGCACCGACAC	-0.168 ± 0.26	-0.314 ± 0.1
ACATTTGTTGATACAACCATAAGTTGATATTTTCACCCATAAATTGATAATTATCACAACCATAAGTTGATATTTTCTCTGATCATAGTCAGACCAACATTGCTACGACCCGTATTCGCACCGACAC	-0.0829 ± 0.01	-0.215 ± 0.056
ACATTTGTTGATACAACCATAAAAGGATCATTACCCCCATCAATTGATAATTATCACACCCCATTTAACTATAACGCTCTGATCATAGTCAGACCAACATTGCTACGACCCGTATTCGCACCGACAC	-1.38 ± 0.048	-4.59 ± 0.85
ACATTTGTTGATACAACCATAAAATGATAATTACACCCATAAATTGATAATTATCAAACACCCATAAATTGATATTGCCTCTGATCATAGTCAGACCAACATTGCTACGACCCGTATTCGCACCGAC	1.9 ± 0.28	-0.252 ± 0.046
ACATTTGTTGATACACCCATAAATTGATATTGCCAACCATATATTGATATCTCTCACAACCATAAAATGATAATTACTCTGATCATAGTCAGACCAACATTGCTACGACCCGTATTCGCACCGACAC	-0.955 ± 0.52	-1.22 ± 0.23
ACATTTGTTGATACAACCATAAAGTGATATTTACAACCATAAGTTGATATTTTTCACACCCATAAATTGATAATTACTCTGATCATAGTCAGACCAACATTGCTACGACCCGTATTCGCACCGACAC	0.0675 ± 0.11	-0.192 ± 0.21
ACATTTGTTGATACAACCATAAGTTGATATTTTCAACCATAAAATGATAATTATCACAACCATAAAATGATAATTACTCTGATCATAGTCAGACCAACATTGCTACGACCCGTATTCGCACCGACAC	-0.774 ± 0.049	-0.00738 ± 0.052
ACATTTGTTGATACAACCATAAAATCATAATTCACCCATAAATTGATAATTATCACACCCACATTTAACTATAACGCTCTGATCATAGTCAGACCAACATTGCTACGACCCGTATTCGCACCGACAC	-0.0705 ± 0.067	-4.53 ± 0.24
ACATTTGTTGATACAACCATAAAATGATAATTACACCCATAAATTGATAATTATCACACCCATAAATTGATATTGCCTCTGATCATAGCGTACTAGTTAACTAGTTCGAGTCAGACCGCACCGACAC	-0.453 ± 0.046	-0.142 ± 0.091
ACATTTGTTGATACAAACATAAAATGATAATTACACACATAAATTGATAATTATCACACACATAAATTGATATTGCCTCTGATCATAGTCAGACCAACATTGCTACGACCCGTATTCGCACCGACAC	-0.182 ± 0.14	-1.41 ± 0.22
ACATTTGTGGATACAACCATAAAATGATAATTACACCCATAAATGGATTATTATCACACCCAATTTAACTATAACGCTCTGATCATAGTCAGACCAACATTGCTACGACCCGTATTCGCACCGACAC	1.2 ± 0.22	-1.72 ± 0.3
ACATTTGTTGATACAACCCGCCAATGATAATTACACCCATAAATTGATAATTATCACACCCATAAATTGATATTGCCTCTGATCATAGTCAGACCAACATTGCTACGACCCGTATTCGCACCGACAC	-3.85 ± 0.3	-4.28 ± 0.2
ACATTTGTTGATACAACCCTAAAATGATAATTACACCCCTAAATTGATAATTATCACACCCCTAAATTGATATTGCCTCTGATCATAGTCAGACCAACATTGCTACGACCCGTATTCGCACCGACAC	-3.01 ± 0.1	-4.68 ± 0.11
ACATTTGTTGATACAACCATAAAATGATAATTACACCCATAAATTGATAATTATCACACCCATAAATTGATATTGCCTCTGCAACCATAAAATGATAATTAATCATAGTCAGACCAAGCACCGACAC	-0.129 ± 0.36	-0.336 ± 0.3

Sequence	relative integration efficiency (log2) [1]	relative integration efficiency (log2) [2]
ACATTTGTGGATACAACCATAAAATGATAATTACACCCATAAATGGATCATTATCACACCCAATTTAACTATAACGCTCTGATCATAGTCAGACCAACATTGCTACGACCCGTATTCGCACCGACAC	1.01 ± 0.2	-1.53 ± 0.23
ACATTTGTTGATACAACCATAAAATGATAATTAATAATTATTTATAATCAGCACACCCATAAATTGATAATTATCAACAAACGCCCGGTCGCGGTACTCTGATCATAGTCAGACCAACATTGCTACG	0.238 ± 0.52	-2.43 ± 0.16
ACATTTGTTGATACAACCATAAAATGATAATTACACCCATAAATTGATAATTATCACACCCATAAATTGCGCGGTAAGAGGATCATAGTCAGACCAACATTGCTACGACCCGTATTCGCACCGACAC	2.18 ± 0.12	-0.4 ± 0.022
ACATTTGTTGATACCACCATAAAATGATAATTCCACCCCTACATTGATAATTATCACACCCAATTTAACTATAACGCTCTGATCATAGTCAGACCAACATTGCTACGACCCGTATTCGCACCGACAC	-0.121 ± 0.44	-3.78 ± 0.24
ACATTTGTTGATACAACCATAAAATGATAATTACACCCAGCAATTGATAATTATCACACCCATAAATTGATATTGCCTCTGATCATAGTCAGACCAACATTGCTACGACCCGTATTCGCACCGACAC	-2.55 ± 0.22	-2.18 ± 0.085
ACATTAGTTGATACAACCATAAAATGATAATTACACCCATAAATGGATCATTATCACACCCAATTTAACTATAACGCTCTGATCATAGTCAGACCAACATTGCTACGACCCGTATTCGCACCGACAC	-4.72 ± 0.67	-6.02 ± 0.2
ACATTTGTTGATACAACCATAAAATGATAATTACAACCATAAAGTGATATTTATCACAACCATAAAGTGATATTTACTCTGATCATAGTCAGACCAACATTGCTACGACCCGTATTCGCACCGACAC	-0.228 ± 0.22	0.0131 ± 0.077
ACATTTGTTGATACAACCATAAAATGATAATTAATAATTATTTATAATCAGCAACTTAACCACAAAACACCCATAAATTGATAATTAACAAAAGTGGGTATTTAACTATAACGTGTGAATCGAGTAT	-1.88 ± 0.39	-3.472 ± 0.019
ACATTTGTTGATACAACCATAAAAGGATCATTACCCCCATAAATTGATAATTATCACACCCAATTTAACTATAACGCTCTGATCATAGTCAGACCAACATTGCTACGACCCGTATTCGCACCGACAC	0.679 ± 0.16	-2.28 ± 0.24
ACATTTGTTGATACAACCATAAAATGATAATTACTCTGATCACCCATAAATTGATAATTATCAGTGGGTATTTAACTATAACGCATAGTCAGACCAACATTGCTACGACCCGTATTCGCACCGACAC	0.977 ± 0.086	-2.48 ± 0.42
ACATTTGTTGATACAACCATTAAATGATAATTCCACCCAAATATTGATAATTATCACACCCAATTTAACTATAACGCTCTGATCATAGTCAGACCAACATTGCTACGACCCGTATTCGCACCGACAC	1.47 ± 0.08	-1.51 ± 0.05
ACATTTGTTGTAACAACCATAAAATGATAATTACACCCATAAATTGATAATTATCACACCCATAAATTGATATTGCCTCTGATCATAGTCAGACCAACATTGCTACGACCCGTATTCGCACCGACAC	-1.09 ± 0.54	-0.2 ± 0.038
ACATTTGTTGATACAACCATAAAATGATAATTACACCCATAAATTGATAATTATCACACCCATAAATTGATATTGCCTCTGGCTAGCACTATACCTAGGACTGAGCTAGCCGTCAACGCACCGACAC	0.877 ± 0.31	-4.7 ± 0.55
ACATTTGTTGATACAACCATAAAATGATAATTACACCCATAAATTGAGCCGTATCACACCCATAAATTGATATTGCCTCTGATCATAGTCAGACCAACATTGCTACGACCCGTATTCGCACCGACAC	-1.21 ± 0.12	-1.03 ± 0.093
ACATTTGTTTATACAACCATAAAATGATAATTACACCCATAAATTCATAATTATCACACCCAATTTAACTATAACGCTCTGATCATAGTCAGACCAACATTGCTACGACCCGTATTCGCACCGACAC	-0.939 ± 0.036	-2.45 ± 0.3
ACATTTGTTTATACAACCATAAAATGATAATTACACCCATAAATTTATAATTATCACACCCAATTTAACTATAACGCTCTGATCATAGTCAGACCAACATTGCTACGACCCGTATTCGCACCGACAC	0.00132 ± 0.14	-1.89 ± 0.13
ACATTTGTTGATACAACCATAAGTTGATATTTTCAACCATATATTGATATCTCTCACAACCATATATTGATATCTCCTCTGATCATAGTCAGACCAACATTGCTACGACCCGTATTCGCACCGACAC	0.206 ± 0.098	-0.28 ± 0.11
